Publication PMC7797058, “Characterization of the first tetrameric transcription factor of the GntR superfamily with allosteric regulation from the bacterial pathogen Agrobacterium fabrum” (Nucleic Acids Research, 2020)

Target: T1, Atu1419-H3A H141A;H192A;H214A (Agrobacterium fabrum C58) (UniProt A9CJ36)
T1 sequence: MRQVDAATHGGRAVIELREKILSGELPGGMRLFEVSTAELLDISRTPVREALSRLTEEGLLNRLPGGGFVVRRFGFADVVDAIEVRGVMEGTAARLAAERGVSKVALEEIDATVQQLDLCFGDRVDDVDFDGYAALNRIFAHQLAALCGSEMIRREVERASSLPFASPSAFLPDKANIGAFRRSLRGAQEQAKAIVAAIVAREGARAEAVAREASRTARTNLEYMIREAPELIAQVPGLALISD
Assay: EMSA
Details: EMSA: 50 mM Tris-HCl pH 8, 150 mM NaCl, 30 nM DNA, 30 min at room temperature; gel 6% or 12% PAGE in TBE at 4 C

AAGCGCCTGAACTGATTGCGCAGGTTCCGGGTCTCGCACTCATCAGCGACTAAGCGGCGGAAATCGCTGCAAATCCAGGGGTGGCGCCTTTTGGCGCCGCCTTTATTTTTGTCGACACCCTCCCTGACGCGGTAATTTTGCGCTTGCAATTTATCAAAGCACAGCGTTTCATGTATACATAGATGCGATTGCCAGGGAGGAGATGACAATGGCAAATTCCAGTCTGACCGAGGTTTTGAAGCAATATCCGAACCCCGTTGAAATGCTC (double strand) [Patu1420]
binding: binds
